Results published in US20240425607A1, “IL-18BP ANTAGONIST ANTIBODIES AND THEIR USE IN MONOTHERAPY AND COMBINATION THERAPY IN THE TREATMENT OF CANCER” (Compugen Ltd., priority 2023, published 2024).
Entries after “also recorded” stand apart in the source; their conditions may differ.

Columns and labels:
[1] = biological target: T1, human IL18BP-Fc binding to human IL-18 (Homo sapiens, UniProt O95998); assay: Blocking of hIL18BP-hIL-18 interaction by ELISA, IL18BP plate bound; conditions: 1 ng/ml human IL-18, compared with clone W19089C
T1 sequence (O95998 31-194): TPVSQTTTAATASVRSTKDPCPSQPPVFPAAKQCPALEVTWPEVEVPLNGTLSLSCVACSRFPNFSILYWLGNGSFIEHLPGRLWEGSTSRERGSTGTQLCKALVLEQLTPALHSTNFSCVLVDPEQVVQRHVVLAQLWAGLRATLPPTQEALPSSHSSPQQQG
Procedure: This assay was utilized to identify anti-human IL18BP Abs that inhibit the binding interaction between human IL18BP- and its counterpart, human IL-18. […] Human IL18BP-Fc protein was coated on the wells of a high binding plate overnight at 4° C. (1 μg/ml, 100 μl/well volume). Plates were washed three times with PBS-T buffer (1×PBS pH 7.4, 0.05% Tween20) incubated with 250 μL blocking buffer (2.5% skim milk in PBS) at room temperature (RT) for 2 hr. Blocking buffer was removed and plates were washed three times with PBS-T buffer. Plate-bound ligands were incubated with anti-human IL18BP Abs in 1% BSA in PBS buffer two times serially diluted (2.5-0.019 μg/ml, 100 μL/well volume) at RT for 1 h. Plates were washed one time with PBS. Plate-bound ligands were incubated with human IL-18 (cat. 9124-IL, R&D) in 1% BSA in PBS buffer (1 ng/ml, 100 μL/well volume) at RT for 1 h. Plates were washed three times with PBS-T (0.05% Tween20 in PBS). Biotinylated anti-IL18 detection antibody, cat. D045-6, R&D 1:1000 in 1% BSA in PBS buffer was added (100 μL/well). This was incubated at RT for 1 hr, and plates were washed again. Peroxidase Streptavidin, Jackson, cat. 016-030-084 1:1000 in 2.5% skim milk in PBS was added (100 μL/well) for 1 hr at RT. […] The HRP reaction was stopped by adding 50 μL 1N HCl and absorbance signals at 450 nm were read on a luminescence Reader-EnSpire (Perkin Elmar). […]

[2] = biological target: T2, recombinant human IL18-BP (Homo sapiens, UniProt O95998); assay: CMV recall assay; format: cell-based
T2 construct: purchased R&D systems 119-BP
T2 sequence (O95998 31-194): T1 sequence (O95998 31-194)
Procedure: Human MEL-624 overexpressing PD-L1 cells were thawed and loaded with CMV pp65 peptide (0.03 μg/ml). The cells were seeded at 100K/well in a 96 well plate and incubated for 30 minutes in 37° C., 5% C02 incubator with a combination rhIL-18 (30 ng/ml, R&D systems, 9124-IL/CF) and rhIL-18BP-Fc chimeric protein (2 μg/ml, R&D systems 119-BP) to allow IL-18+IL-18BP complex formation. After 30 minutes, anti-human IL-18BP (ADI-71722), anti-human PVRIG, anti-human TIGIT (anti-TIGIT), anti-human PD1 (Pembrolizumab) or relevant isotype control (hIgG4) were added to the culture to examine their capability to restore IL-18 activity. All antibodies were added to a final concentration of 10 μg/ml. 30 minutes post incubation with antibodies, thawed CMV-reactive T-cells were added to the culture. Cells and all added solutions were prepared in full IMDM (IMDM media with 10% human serum, 1% Glutamax, 1% MEM eagle, 1% sodium pyruvate, and 1% Penicillin-Streptomycin Solution) to a final volume of 200 μl/well. Plates were incubated for 24 hours in 37° C., 5% C02 incubator, after which the supernatant was collected for IFNγ secretion evaluation. All tests were done in triplicates and each repeated with three donors.
MEL624 cells that overexpress PD-L1 were loaded with CMV peptide pp65. […] CMV-specific T-cells were then added to the culture and IFNg secretion was measured after an overnight incubation.

B1: ADI-71739: anti-IL18-BP antibody, sequences in FIG. 2K; 66716 lineage (antibody, V domains shown)
VH: QLQLQESGPGLVKPSETLSLTCTVSGGSISSPDYPWGWIRQPPGKGLEWIGSIYYQGATYYNPSLKSRVTISVDTSKNQFSLKLSSVTAADTAVYYCARGPYRQLFDYWGQGTLVTVSS
VL: DIQMTQSPSSVSASVGDRVTITCRASQGISSWLAWYQQKPGKAPKLLIYAASSLQSGVPSRFSGSGSGTDFTLTISSLQPEDFATYYCQQGSVFPYTFGGGTKVEIK
In the case of B1, the “Blocking effect on binding of human IL18BP to human IL-18” value [1] is reported as “superior to Biolegend Ab”, the “IFNγ secretion by CMV-reactive T-cells, as mono” value ([2]; 10 μg/ml, rhIL-18 30 ng/ml + rhIL-18BP 2 μg/ml) is reported as “increase IFNγ secretion from CMV-reactive T-cells; also recorded: increase IFNγ secretion by the T cells” and the “IFNγ secretion by CMV-reactive T-cells, in combination” value ([2]; combined with Pembrolizumab, anti-PVRIG or anti-TIGIT, each 10 μg/ml, vs mono) is reported as “in a more potent manner; also recorded: augmented”.
